This assay concerns the target SH3 domain of Src (residues 83–141) with C-terminal FLAG-tag (chicken, UniProt P00523 83-141). The experiment in a line: bimane fluorescence.

B1: βarr1-MC-393 V70C labeled with monobromobimane (domain or fragment, rat, UniProt P29066 1-393, looked up)
chain: MGDKGTRVFKKASPNGKLTVYLGKRDFVDHIDLVDPVDGVVLVDPEYLKERRVYVTLTAAFRYGREDLDCLGLTFRKDLFVANVQSFPPAPEDKKPLTRLQERLIKKLGEHAYPFTFEIPPNLPSSVTLQPGPEDTGKAIGVDYEVKAFVAENLEEKIHKRNSVRLVIRKVQYAPERPGPQPTAETTRQFLMSDKPLHLEASLDKEIYYHGEPISVNVHVTNNTNKTVKKIKISVRQYADIVLFNTAQYKVPVAMEEADDTVAPSSTFSKVYTLTPFLANNREKRGLALDGKLKHEDTNLASSTLLREGANREILGIIVSYKVKVKLVVSRGGLLGDLASSDVAVELPFTLMHPKPKEEPPHREVPESETPVDTNLIELDTNDDDIVFEDFAR
modifications: monobromobimane (mBr) on C70
Regarding B1, the binding result was “binds”.

Source of the values: article PMC11312540 (bioRxiv, 2024).
